One series concerns NK cells. Conditions: cited from earlier work.
In series [1] the test system is hPBMC humanized NSG mice. The conditions noted are these: mouse, in vivo. From the text: The clinical score in the mice was monitored by performing the signs and the grading of scores as follow: Score: 0=normal activity; 1=normal activity, piloerection, tiptoe gait; 2=hunched, reduced activity but still mobile; 3=hypomotile but mobile when prompted; 4=moribund (point of death). Mice with a clinical score of 4 were euthanized.
As in a reference by Brady et al., Clinical & Translational Immunology, 2014, the inventors performed the signs and the grading of scores as follow: Score: 0=normal activity; 1=normal activity, piloerection, tiptoe gait; 2=hunched, reduced activity but still mobile; 3=hypomotile but mobile when prompted; 4=moribund (point of death). Mice with a clinical score of 4 were euthanized.

Series [2] deals with hPBMC humanized NSG mice. The conditions noted are these: mouse, in vivo. This is another data set of the same source.
Method: Rectal temperature of the mice of Examples 5 and 6 was measured before treatment and again immediately before each time-point bleed. […] Rectal temperature was measured in hPMBCs humanized mice of 10 donors injected with control PBS, OKT3, and anti-CD28. The number of mice for each group was 2-5 and data are presented as mean±SEM.
Rectal temperature of the mice was measured before treatment and again immediately before each time-point bleed. Temperature was measured by the insertion of a rectal thermocouple probe and waiting until a stable reading was obtained.
The subject of a further series is human PBMCs. Nature of the series: In vitro PBMC assay of cytokine release (drug-coated plate). It is filed as cell-based. The conditions noted are these: donor 213; anti-CD28 10 μg/well, OKT3 1 mg/ml; supernatant day 2. The method, then:
Day −1: Coated the plate with drugs: dilute drug (e.g., an antibody) in PBS; leave plate open under hood.
Day 0: Process PBMCs from each donor. PBMCs were from donor 213, 309, 345, or 366. Thaw PBMCs in supplemented RPMI and wash once. Count cells and re-suspend in supplemented RPMI at 1×10^6 cells/ml. Wash coated wells twice with 200 μl PBS and then once with 200 μL supplemented RPMI. Plate 100 μl of cells in each well (for a total of 1×10^5 cells per well).
Day 2: Harvest supernatant from each well and measure the cytokine level using a BD CBA Th1/Th2 II kit.
The two methods for determining cytokine release levels after a drug treatment were compared for treatment of PBMCs from four different donors with an anti-CD28 antibody (Ancell, Cat. No. 177-824). For the in vitro assay, anti-CD28 was dosed at 10 μg/well in the 96 well plates. For the in vivo method, anti-CD28 was dosed at 1 mg/kg. Supernatants of the in vitro PBMC culture wells and serum from the mice were collected and cytokine levels were measured. Antibody OKT3 (0.5 mg/kg for the in vivo assay or 1 mg/ml for the in vitro assay) was used as a positive control and either PBS or isotype antibodies were used as negative controls in the in vivo assay or the in vitro assay, respectively. The cytokine levels determined are presented in FIGS. 14A (IFN-γ and IL-10) and 14B (IL-6 and IL-4) as mean values±standard error of the mean (SEM).

Series [3] relates to hPBMC humanized NSG mice. Nature of the series: Human cytokine release in sera of hPBMC humanized NSG mice after drug injection (BD CBA Th1/Th2 II kit). The conditions noted are these: mouse, in vivo. The method, then:
PBMCs of nine […] different donors were used to produce humanized NSG mice for these experiments. On day 6 of hPBMC engraftment (2×10^7 PBMCs/mouse), the mice were induced for human cytokine release by i.v. injection with antibodies OKT3 (anti-CD3 mAb; BioLegend, Cat. No. 317302) or ANC28.1/5D10 (also referred to as “ANC28”, “anti-CD28 mAb,” or “anti-CD28”; Ancell, Cat. No. 177-824). PBS buffer served as a negative control. The mice were bled at 2 and 6 hours, sera were collected and analyzed for cytokine concentrations using BD Cytometric Bead Array (CBA) Human Th1/Th2 Cytokine kit II (BD, Cat. No. 551809) (See, FIGS. 5A-5F).
FIGS. 5A-5F depict multiple graphs of concentration of different cytokines (i.e., IFN-γ, IL-6, IL-2, IL-10, IL-4, and TNF, respectively) measured at 2 and 6 hours after injection of antibodies OKT3 (anti-CD3 mAb) and ANC28 (anti-CD28) into sets of humanized mice for nine (9) different donors. Mice were i.v. injected with 0.5 mg/kg OKT3 or 1 mg/kg anti-CD28, and 5 ml/kg PBS (a negative control). Mice were bled at 2 and 6 hours and circulating cytokine concentrations were measured by BD CBA Th1/Th2 II kit.
To do so, a high number of PBMCs (i.e., 5×10^7/mouse) was engrafted into the humanized NSG mice. On day 6, the mice received the drug and a cytokine release profile was determined. Here, the IFN-γ and Il-10 levels were evaluated as in the above-mentioned experiments using 2×10^7 PBMCs/mouse.
On day 6 after engraftment, the mice received the immunotherapeutic drug (mAb) and a cytokine release profile was determined in these three groups of mice. Mice were bled at 2 and 6 hours and circulating cytokine concentrations were measured by BD CBA Th1/Th2 II kit. FIGS. 10A-F depict the cytokine levels after drug injection in donor 309 humanized NSG mice engrafted with 2×10^7, 3×10^7, or 4×10^7PBMCs/mouse. FIG. 10A depicts the INFγ level for each group of mice. FIG. 10B depicts the IL-10 level for each group of mice. FIG. 10C depicts the IL-6 level for each group of mice. FIG. 10D depicts the IL-2 level for each group of mice. FIG. 10E depicts the IL-4 level for each group of mice. FIG. 10F depicts the TNF level for each group of mice.
In this study, the inventors examined different concentrations of […]® (pembrolizumab) to determine if there is dosage dependence in the CRS in humanized mice. 6-week old female NOD.Cg-Prkdc^scid Il2rg^tm1Wjl/SzJ (NSG, JAX stock number 005557) mice were irradiated with 100cGy X-ray at least 4 hours prior to human PBMCs engraftment. The PBMCs in these experiments were from donor 358. Purified/isolated human PBMCs were intravenously injected into the mice at 3×10^7 cells/mouse. Six days after PBMC engraftment, mice were iv injected with PBS (negative control), 0.5 mg/kg OKT3 (positive control), 2.5 mg/kg, 5 mg/kg, or 10 mg/kg […]®. There were 5 mice per group. These […]® dosages are in the range of dosages studied in clinical trials discussed on the U.S. prescribing information for […]®. Few adverse effect reports of severe cytokine release syndrome after […]® administration have been documented. Mice were bled at 2 and 6 hours and circulating cytokine concentrations were measured using a BD CBA Th1/Th2 II kit. As shown in FIGS. 12A-F, the level measured after injection of the positive control OKT3 was very high for each of IFN-γ, IL-10, IL-6, IL-2, IL-4, and TNF. […]

The subject of the next series is non-humanized mice. Put plainly: Administration of antibodies to non-humanized mice, cytokine responses. The conditions noted are these: mouse, in vivo.

This is an account of results in patent publication US12510548B2, “Method of determining toxicity of an immunomodulatory drug for use in humans” (The Jackson Laboratory, priority 2017, dated 2025).

Read-outs that look alike come from different tables or passages of the source.

As for alemtuzumab [CAMPATH 1-H], the “cytokine release in vivo” value with NK cells is “high levels of TNF, IFN-γ and IL-6”.

muromonab-CD3 [OKT3] displayed a clinical score in the series on hPBMC humanized NSG mice [1] of 1. For the same substance, in the series on hPBMC humanized NSG mice [2], the “body temperature (rectal)” value was “below 36 °C”. The “IFN-γ, IL-10, IL-6, and IL-4 levels versus control isotype antibody, in vitro” value in the series with human PBMCs is “much higher than levels determined after dosing with the control isotype antibody”. Also, in the series with hPBMC humanized NSG mice [3], the “cytokine levels in non-irradiated mice compared to irradiated mice” value is listed as “consistently lower” and the “major inflammatory cytokines in treated humanized mice” value was “significant increase in major inflammatory cytokines”. In the series with hPBMC humanized NSG mice [3] (iv, 0.5 mg/kg), the “level of each of IFN-γ, IL-10, IL-6, IL-2, IL-4, and TNF” value is given as “very high”. In the series on non-humanized mice, the “cytokine responses in non-humanized mice” value is given as “did not induce the cytokine responses”.

In the case of pembrolizumab, the clinical score entry in the series on hPBMC humanized NSG mice [1] (5 mg/kg) and in the series with hPBMC humanized NSG mice [1] (10 mg/kg) was “the same as positive control” each time. Besides, in the series with hPBMC humanized NSG mice [3], the “cytokine levels in non-irradiated mice compared to irradiated mice” value is “consistently lower”. Moreover, the cytokine levels entry in the series with hPBMC humanized NSG mice [3] (iv, 2.5 mg/kg) is given as “within the error range of the level measured for the PBS control group”.
